Each block holds one binder with its values, some of them ahead of it.
Tests used:
ADI-22523 Fab = biological target: T1, ADI-22523 Fab; test: BLI; tip anti-ID IgG, solution ADI-22523 Fab
T1 construct: anti-CD3 Fab by papain digestion of the IgG
Description: (§1) ForteBio affinity measurements were performed generally as previously described (Estep et al., MAbs. 2013 5(2):270-8). Briefly, ForteBio affinity measurements were performed by loading antibody IgG or Fabs on-line onto AHC sensors. Sensors were equilibrated off-line in assay buffer for 30 minutes and then monitored on-line for 60 seconds for baseline establishment. For avid binding measurement, sensors with loaded antibodies were exposed to IgG or Fab solutions for 3 minutes, afterwards they were transferred to assay buffer for 3 minutes for off-rate measurement. Kinetics data were fit using a 1:1 binding model in the data analysis software provided by ForteBio to obtain equilibrium dissociation constant (KD=koff/kₒₙ) values. In each column, tip-immobilized antibodies are listed first and solution antibodies second.

ADI-26912 = biological target: T2, ADI-26912; test: SPR Carterra avidity, yeast anti-ID
T2 construct: anti-CD3 antibody made in CHO cells, captured by anti-human Fc
Description: (§2) Kinetic analysis was conducted at 25° C. in an HBSTE running buffer system (Carterra Cat #3630) using a Carterra LSA (Carterra USA, Salt Lake City, UT). The sample compartment was maintained at 20° C. for the duration of each experiment.
(§3) For antibody capture experiments, a goat anti-human Fc antibody (Jackson ImmunoResearch) was covalently coupled to an HC30M sensor chip surface via standard amine coupling (1:1 EDC:NHS) and then blocked with ethanolamine (1.0 M, pH 8.5). Covalent coupling steps were performed in 25 mM MES buffer (Carterra, Cat #3625) plus 0.05% Tween20. The anti-CD3 antibodies (100 nM in running buffer) were flowed over discrete regions of interest on the chip surface for 5 minutes. […] Dissociation of the anti-idiotype antibodies was monitored for 300s. Several blank buffer samples were injected over the entire chip surface at the start of each non-regenerative kinetic cycle. The preceding blank buffer injection was used for blank surface subtraction. At the end of each non-regenerative kinetic cycle, all surfaces were regenerated via two 30s injections of 10 mM glycine, pH 1.7.
(§4) For data processing and fitting, sensorgrams were double reference subtracted with a baseline drift correction of 4 RU. Sensorgrams were y-aligned and baseline corrected, filtered and cropped to include only the association and dissociation steps. Data was fitted to a 1:1 binding model using Carterra Kinetics Data Analysis software version 1.7.1.3055.

ADI-48576 = biological target: T3, ADI-48576; test: SPR Carterra avidity, yeast anti-ID
T3 construct: pH-dependent anti-CD3 antibody made in CHO cells
Description: as §2, §3, §4

ADI-67445 = biological target: T4, ADI-67445; test: SPR Carterra avidity, yeast anti-ID
T4 construct: anti-CD3 antibody made in CHO cells, captured by anti-human Fc
Description: as §2, §3, §4

ADI-76357 = biological target: T5, ADI-76357; test: SPR Carterra avidity, yeast anti-ID
T5 construct: anti-CD3 antibody made in CHO cells, captured by anti-human Fc
Description: as §2, §3, §4

ADI-26943 = biological target: T6, ADI-26943; test: SPR Carterra avidity, yeast anti-ID
T6 construct: anti-CD3 antibody made in CHO cells, captured by anti-human Fc
Description: as §2, §3, §4

ADI-26924 = biological target: T7, ADI-26924; test: SPR Carterra avidity, yeast anti-ID
T7 construct: anti-CD3 antibody made in CHO cells, captured by anti-human Fc
Description: as §2, §3, §4

ADI-70327 = biological target: T8, ADI-70327; test: SPR Carterra avidity, yeast anti-ID
T8 construct: anti-CD3 antibody made in CHO cells, captured by anti-human Fc
Description: as §2, §3, §4

ADI-48587 = biological target: T9, ADI-48587; test: SPR Carterra avidity, yeast anti-ID
T9 construct: pH-dependent anti-CD3 antibody made in CHO cells
Description: as §2, §3, §4

ADI-50024 = biological target: T10, ADI-50024; test: SPR Carterra avidity, yeast anti-ID
T10 construct: anti-CD3 antibody made in CHO cells, captured by anti-human Fc
Description: as §2, §3, §4

ADI-67450 = biological target: T11, ADI-67450; test: SPR Carterra avidity, yeast anti-ID
T11 construct: anti-CD3 antibody made in CHO cells, captured by anti-human Fc
Description: as §2, §3, §4

ADI-74966 = biological target: T12, ADI-74966; test: SPR Carterra avidity, yeast anti-ID
T12 construct: pH-dependent anti-CD3 antibody made in CHO cells
Description: as §2, §3, §4

ADI-74965 = biological target: T13, ADI-74965; test: SPR Carterra avidity, yeast anti-ID
T13 construct: pH-dependent anti-CD3 antibody made in CHO cells
Description: as §2, §3, §4

ADI-67447 = biological target: T14, ADI-67447; test: SPR Carterra avidity, yeast anti-ID
T14 construct: anti-CD3 antibody made in CHO cells, captured by anti-human Fc
Description: as §2, §3, §4

ADI-76360 = biological target: T15, ADI-76360; test: SPR Carterra avidity, yeast anti-ID
T15 construct: anti-CD3 antibody made in CHO cells, captured by anti-human Fc
Description: as §2, §3, §4

ADI-26909 = biological target: T16, ADI-26909; test: SPR Carterra avidity, yeast anti-ID
T16 construct: anti-CD3 antibody made in CHO cells, captured by anti-human Fc
Description: as §2, §3, §4

ADI-26913 IgG = biological target: T17, ADI-26913 IgG; test: SPR Carterra avidity, yeast anti-ID
T17 construct: anti-CD3 IgG
Description: as §2, §3, §4

ADI-76358 = biological target: T18, ADI-76358; test: SPR Carterra avidity, yeast anti-ID
T18 construct: anti-CD3 antibody made in CHO cells, captured by anti-human Fc
Description: as §2, §3, §4

ADI-26916 IgG = biological target: T19, ADI-26916 IgG; test: SPR Carterra avidity, yeast anti-ID
T19 construct: anti-CD3 IgG
Description: as §2, §3, §4

ADI-70330 = biological target: T20, ADI-70330; test: SPR Carterra avidity, yeast anti-ID
T20 construct: anti-CD3 antibody made in CHO cells, captured by anti-human Fc
Description: as §2, §3, §4

ADI-48592 = biological target: T21, ADI-48592; test: SPR Carterra avidity, yeast anti-ID
T21 construct: pH-dependent anti-CD3 antibody made in CHO cells
Description: as §2, §3, §4

ADI-26906 IgG = biological target: T22, ADI-26906 IgG; test: SPR Carterra avidity, yeast anti-ID
T22 construct: anti-CD3 IgG
Description: as §2, §3, §4

ADI-74968 = biological target: T23, ADI-74968; test: SPR Carterra avidity, yeast anti-ID
T23 construct: pH-dependent anti-CD3 antibody made in CHO cells
Description: as §2, §3, §4

ADI-76361 = biological target: T24, ADI-76361; test: SPR Carterra avidity, yeast anti-ID
T24 construct: anti-CD3 antibody made in CHO cells, captured by anti-human Fc
Description: as §2, §3, §4

ADI-70326 = biological target: T25, ADI-70326; test: SPR Carterra avidity, yeast anti-ID
T25 construct: anti-CD3 antibody made in CHO cells, captured by anti-human Fc
Description: as §2, §3, §4

ADI-48650 = biological target: T26, ADI-48650; test: SPR Carterra avidity, yeast anti-ID
T26 construct: pH-dependent anti-CD3 antibody made in CHO cells
Description: as §2, §3, §4

ADI-76362 = biological target: T27, ADI-76362; test: SPR Carterra avidity, yeast anti-ID
T27 construct: anti-CD3 antibody made in CHO cells, captured by anti-human Fc
Description: as §2, §3, §4

CTL-62223 = biological target: T28, CTL-62223; test: SPR Carterra avidity, yeast anti-ID
T28 construct: also called mosunetuzumab
Description: as §2, §3, §4

ADI-26919 = biological target: T29, ADI-26919; test: SPR Carterra avidity, yeast anti-ID
T29 construct: anti-CD3 antibody made in CHO cells, captured by anti-human Fc
Description: as §2, §3, §4

ADI-26915 = biological target: T30, ADI-26915; test: SPR Carterra avidity, yeast anti-ID
T30 construct: anti-CD3 antibody made in CHO cells, captured by anti-human Fc
Description: as §2, §3, §4

ADI-76359 = biological target: T31, ADI-76359; test: SPR Carterra avidity, yeast anti-ID, *koff limit
T31 construct: anti-CD3 antibody made in CHO cells, captured by anti-human Fc
Description: as §2, §3, §4

ADI-74967 = biological target: T32, ADI-74967; test: SPR Carterra avidity, yeast anti-ID, *koff limit
T32 construct: pH-dependent anti-CD3 antibody made in CHO cells
Description: as §2, §3, §4

ADI-26920 IgG = biological target: T33, ADI-26920 IgG; test: SPR Carterra avidity, yeast anti-ID, *koff limit
T33 construct: anti-CD3 IgG
Description: as §2, §3, §4

ADI-26921 IgG = biological target: T34, ADI-26921 IgG; test: SPR Carterra avidity, yeast anti-ID, *koff limit
T34 construct: anti-CD3 IgG
Description: as §2, §3, §4

ADI-22523 IgG = biological target: T35, ADI-22523 IgG; test: BLI; tip anti-ID IgG, solution ADI-22523 IgG
T35 construct: anti-CD3 IgG
Description: as §1

T35 sequence (VH, as listed by the source limits assumed, chain 1 of 2): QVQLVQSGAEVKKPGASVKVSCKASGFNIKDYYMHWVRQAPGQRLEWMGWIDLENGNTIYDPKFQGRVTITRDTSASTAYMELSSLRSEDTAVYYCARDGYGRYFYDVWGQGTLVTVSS
T35 sequence (VL, as listed by the source limits assumed, chain 2 of 2): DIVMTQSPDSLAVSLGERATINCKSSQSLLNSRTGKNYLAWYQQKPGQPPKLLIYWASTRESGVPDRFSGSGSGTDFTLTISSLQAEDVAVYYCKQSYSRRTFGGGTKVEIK
T24 sequence (VH, as listed by the source, chain 1 of 2): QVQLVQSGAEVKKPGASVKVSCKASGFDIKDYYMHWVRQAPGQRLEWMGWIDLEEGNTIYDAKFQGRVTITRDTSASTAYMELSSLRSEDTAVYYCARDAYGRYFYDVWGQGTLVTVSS
T24 sequence (VL, as listed by the source, chain 2 of 2): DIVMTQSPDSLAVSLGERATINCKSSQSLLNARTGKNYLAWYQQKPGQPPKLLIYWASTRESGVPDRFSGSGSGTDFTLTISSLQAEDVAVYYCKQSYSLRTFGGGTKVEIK
T4 sequence (VH, as listed by the source limits assumed, chain 1 of 2): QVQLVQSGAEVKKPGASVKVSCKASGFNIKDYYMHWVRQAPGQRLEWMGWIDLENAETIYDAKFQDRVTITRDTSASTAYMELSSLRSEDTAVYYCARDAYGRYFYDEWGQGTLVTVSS
T4 sequence (VL, as listed by the source limits assumed, chain 2 of 2): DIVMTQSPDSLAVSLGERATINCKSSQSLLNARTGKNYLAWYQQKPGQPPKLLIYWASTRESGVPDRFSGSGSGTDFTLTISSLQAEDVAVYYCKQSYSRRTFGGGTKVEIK
T29 sequence (VH, as listed by the source limits assumed, chain 1 of 2): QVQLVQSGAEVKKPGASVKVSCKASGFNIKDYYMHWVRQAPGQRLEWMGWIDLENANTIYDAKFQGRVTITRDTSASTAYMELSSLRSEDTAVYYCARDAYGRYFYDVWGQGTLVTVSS
T20 sequence (VH, as listed by the source limits assumed, chain 1 of 2): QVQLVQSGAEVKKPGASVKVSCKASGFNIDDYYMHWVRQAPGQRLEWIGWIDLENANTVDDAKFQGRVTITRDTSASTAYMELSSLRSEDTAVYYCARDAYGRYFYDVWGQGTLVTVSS
T20 sequence (VL, as listed by the source limits assumed, chain 2 of 2): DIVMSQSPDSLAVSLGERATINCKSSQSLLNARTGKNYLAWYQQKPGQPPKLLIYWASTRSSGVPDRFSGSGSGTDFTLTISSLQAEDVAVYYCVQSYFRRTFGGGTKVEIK
T25 sequence (VH, as listed by the source limits assumed, chain 1 of 2): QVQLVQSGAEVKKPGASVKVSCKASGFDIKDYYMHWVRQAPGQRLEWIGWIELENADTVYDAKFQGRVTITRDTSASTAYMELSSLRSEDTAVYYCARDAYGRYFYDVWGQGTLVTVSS
T28 sequence (VH, as listed by the source, chain 1 of 2): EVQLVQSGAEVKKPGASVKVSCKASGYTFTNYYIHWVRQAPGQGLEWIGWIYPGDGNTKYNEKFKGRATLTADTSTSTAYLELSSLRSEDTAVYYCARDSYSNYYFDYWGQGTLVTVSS
T28 sequence (VL, as listed by the source, chain 2 of 2): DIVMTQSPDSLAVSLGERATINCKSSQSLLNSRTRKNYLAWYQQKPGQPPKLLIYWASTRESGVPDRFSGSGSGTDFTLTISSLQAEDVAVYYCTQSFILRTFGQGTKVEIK
T33 sequence (VH, as listed by the source limits assumed, chain 1 of 2): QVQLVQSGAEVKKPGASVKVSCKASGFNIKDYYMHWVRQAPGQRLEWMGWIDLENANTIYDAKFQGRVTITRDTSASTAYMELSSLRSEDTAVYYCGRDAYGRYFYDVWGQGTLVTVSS
T32 sequence (VH, as listed by the source, chain 1 of 2): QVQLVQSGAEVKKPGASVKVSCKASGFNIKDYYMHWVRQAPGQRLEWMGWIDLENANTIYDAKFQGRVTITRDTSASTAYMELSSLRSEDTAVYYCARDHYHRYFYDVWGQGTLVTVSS
T32 sequence (VL, as listed by the source, chain 2 of 2): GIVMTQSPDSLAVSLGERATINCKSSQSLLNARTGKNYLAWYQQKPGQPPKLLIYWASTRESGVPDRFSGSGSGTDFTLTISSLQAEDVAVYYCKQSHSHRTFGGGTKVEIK
T9 sequence (VL, as listed by the source, chain 2 of 2): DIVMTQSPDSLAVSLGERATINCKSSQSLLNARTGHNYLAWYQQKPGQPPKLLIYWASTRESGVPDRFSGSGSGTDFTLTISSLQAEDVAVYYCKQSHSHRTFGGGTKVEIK
T12 sequence (VL, as listed by the source, chain 2 of 2): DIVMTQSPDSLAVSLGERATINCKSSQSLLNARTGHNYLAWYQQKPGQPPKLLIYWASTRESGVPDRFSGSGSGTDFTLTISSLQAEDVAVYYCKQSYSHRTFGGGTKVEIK
T14 sequence (VH, as listed by the source limits assumed, chain 1 of 2): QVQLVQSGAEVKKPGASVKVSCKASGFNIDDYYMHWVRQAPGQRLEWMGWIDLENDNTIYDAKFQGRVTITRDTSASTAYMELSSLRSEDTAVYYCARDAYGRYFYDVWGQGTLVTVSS
T8 sequence (VH, as listed by the source limits assumed, chain 1 of 2): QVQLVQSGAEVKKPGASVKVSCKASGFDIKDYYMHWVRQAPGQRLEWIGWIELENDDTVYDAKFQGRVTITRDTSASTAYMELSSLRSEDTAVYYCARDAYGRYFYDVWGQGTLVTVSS
T31 sequence (VH, as listed by the source, chain 1 of 2): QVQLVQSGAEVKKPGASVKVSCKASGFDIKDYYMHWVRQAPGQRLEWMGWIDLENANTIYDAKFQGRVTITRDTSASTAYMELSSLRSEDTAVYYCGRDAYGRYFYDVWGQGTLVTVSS
T26 sequence (VH, as listed by the source, chain 1 of 2): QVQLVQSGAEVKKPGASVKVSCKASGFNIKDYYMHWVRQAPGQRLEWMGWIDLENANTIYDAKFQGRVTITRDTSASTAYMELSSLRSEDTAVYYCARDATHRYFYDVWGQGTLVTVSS
T26 sequence (VL, as listed by the source, chain 2 of 2): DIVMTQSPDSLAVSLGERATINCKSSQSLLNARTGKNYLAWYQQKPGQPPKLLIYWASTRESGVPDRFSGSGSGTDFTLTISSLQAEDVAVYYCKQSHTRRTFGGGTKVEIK
T19 sequence (VH, as listed by the source, chain 1 of 2): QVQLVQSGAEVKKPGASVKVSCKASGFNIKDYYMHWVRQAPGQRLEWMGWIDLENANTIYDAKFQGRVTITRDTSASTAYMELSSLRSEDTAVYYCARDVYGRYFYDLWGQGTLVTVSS

Kd (ADI-22523 Fab): 14.8 nM | binding result (ADI-26912): binds | binding result (ADI-48576): binds | Kd (ADI-67445): 0.37 nM | Kd (ADI-76357): 0.086 nM | Kd (ADI-26943): 0.17 nM | Kd (ADI-26924): 0.19 nM | Kd (ADI-70327): 0.95 nM | Kd (ADI-48587): 0.88 nM | Kd (ADI-50024): 0.39 nM | Kd (ADI-67450): 0.92 nM | Kd (ADI-74966): 0.21 nM | binding result (ADI-74965): binds | Kd (ADI-67447): 0.22 nM | Kd (ADI-76360): 0.082 nM | Kd (ADI-26909): 0.32 nM | Kd (ADI-26913 IgG): 0.3 nM | Kd (ADI-76358): 0.96 nM | Kd (ADI-26916 IgG): 0.31 nM | Kd (ADI-70330): 0.3 nM | binding result (ADI-48592): binds | Kd (ADI-26906 IgG): 0.33 nM | Kd (ADI-74968): 0.76 nM | Kd (ADI-76361): 0.054 nM | binding result (ADI-70326): binds | binding result (ADI-48650): binds | Kd (ADI-76362): 0.22 nM | Kd (CTL-62223): 1.8 nM | Kd (ADI-26919): 0.14 nM | Kd (ADI-26915): 14 nM | Kd (ADI-76359): 0.059 nM | Kd (ADI-74967): 0.12 nM | Kd (ADI-26920 IgG): 0.088 nM | Kd (ADI-26921 IgG): 0.048 nM | Kd (ADI-22523 IgG): 0.63 nM
B1: ADI-34137 (antibody, V domains shown)
VH: QVQLVQSGAEVKKPGSSVKVSCKASGGTFSSYAISWVRQAPGQGLEWMGGIIPIFGTANYAQKFQGRVTITADESTSTAYMELSSLRSEDTAVYYCARGAPNYYGSGGYDDGWFDPWGQGTLVTVSS
VL: EIVLTQSPGTLSLSPGERATLSCRASQSVSSSYLAWYQQKPGQAPRLLIYGASSRATGIPDRFSGSGSGTDFTLTISRLEPEDFAVYYCQQFGRFPTFGGGTKVEIK
notes: anti-ID IgG

Kd (ADI-22523 Fab): 12.5 nM | Kd (ADI-22523 IgG): 2.99 nM
B2: ADI-34139 (antibody, V domains shown)
VH: EVQLLESGGGLVQPGGSLRLSCAASGFTFSSYAMSWVRQAPGKGLEWVSTISGSGGSTYYADSVKGRFTISRDNSKNTLYLQMNSLRAEDTAVYYCARLGGRRGSGSSYYYYYGMDVWGQGTTVTVSS
VL: not shown
notes: anti-ID IgG

Kd (ADI-22523 Fab): 18.9 nM | Kd (ADI-22523 IgG): 2.9 nM
B3: ADI-34140 (antibody, V domains shown)
VH: B2 VH
VL: not shown
notes: anti-ID IgG

From patent US20250019439A1 (Adimab, published 2025)
